The assay addresses Methionine-1-linked triubiquitin (UniProt P0CG48 1-76; P0CG48 1-76; P0CG48 1-76). As to the kind of experiment: MST.

Sequence of Methionine-1-linked triubiquitin (P0CG48 1-228, one chain of several): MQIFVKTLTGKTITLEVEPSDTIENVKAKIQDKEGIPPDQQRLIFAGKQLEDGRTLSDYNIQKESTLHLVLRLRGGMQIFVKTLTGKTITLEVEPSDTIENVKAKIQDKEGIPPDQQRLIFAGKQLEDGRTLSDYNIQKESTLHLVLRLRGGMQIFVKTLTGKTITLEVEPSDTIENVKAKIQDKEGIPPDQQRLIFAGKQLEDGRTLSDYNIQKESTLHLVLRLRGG

B1: AHD1-UBAN E444F (domain or fragment)
chain: QRLNKALEEALSIQTPPSSPPTAFGSPFGAGALLRKQELVTQNELLKQQVKIFEEDFQRERSDRERMNEEKEELKKQVEKLQAQVTLSNAQLK
For B1, the affinity, expressed as Kd, was 3.52 µM.

B2: AHD1-UBAN E425Q (domain or fragment)
chain: QRLNKALEQALSIQTPPSSPPTAFGSPEGAGALLRKQELVTQNELLKQQVKIFEEDFQRERSDRERMNEEKEELKKQVEKLQAQVTLSNAQLK
As for B2, the Kd (in general, the free concentration of one partner at which half of the binding sites on the other are occupied at equilibrium, for simple one-to-one binding) amounted to 5.5 µM.

The values above are taken from publication PMC11940065 (2025).
